{"source": "paper PMC7772776", "origin": "cited, not measured here", "key": {"Cys46": {"molecular_target": "Cys46 (UniProt position 47, DFTFVCPTELG)"}, "Cys29": {"molecular_target": "Cys29 (UniProt position 108, GSCGSCWAFGA)"}, "Cys72": {"molecular_target": "Cys72 (UniProt position 72, VFGMGCFWGAE)"}, "Cys283 [1]": {"molecular_target": "Cys283 (UniProt position 283, GYVLTCPSNLG)"}, "Cys283 [2]": {"molecular_target": "Cys283 (UniProt position 283, GYVLTCPANLG)"}, "Cys125": {"molecular_target": "Cys125 (UniProt position 126, PGDFGCDAQGA)"}, "Cys124": {"molecular_target": "Cys124 (UniProt position 125, HPGDFCADAQG)"}, "Cys145": {"molecular_target": "Cys145 (UniProt position 145, PILIPCHRVVC)"}, "Cys25 [3]": {"molecular_target": "Cys25 (UniProt position 158, GSCGSCWAFSA)"}, "Cys25 [4]": {"molecular_target": "Cys25 (UniProt position 157, GSCGSCWAFSA)"}, "Cys88": {"molecular_target": "Cys88 (UniProt position 88, ADGSICLDILQ)"}, "Cys87": {"molecular_target": "Cys87 (UniProt position 87, RLGRICLDVLK)"}, "Cys102": {"molecular_target": "Cys102 (UniProt position 102, KFLTPCYHPNV)"}}}
{"substance": "Alkyl hydroperoxide reductase C (AhpC) (Salmonella (article gives genus only; Salmonella typhimurium inferred))", "values": [{"measurement": "pKa", "setting": "Cys46", "result": 5.9}]}
{"substance": "Cathepsin B (Rattus norvegicus)", "values": [{"measurement": "pKa", "setting": "Cys29", "result": 3.6}]}
{"substance": "Methionine sulfoxide reductase A (MmsrA) (Mus musculus)", "values": [{"measurement": "pKa", "setting": "Cys72", "result": 7.2}]}
{"substance": "Methionine sulfoxide reductase A E115Q (MmsrA E115Q) (Mus musculus; E115Q)", "values": [{"measurement": "pKa", "setting": "Cys72", "result": 8.2}]}
{"substance": "Muscle creatine kinase (HMCK) (Homo sapiens)", "values": [{"measurement": "pKa", "setting": "Cys283 [1]", "result": 5.6}]}
{"substance": "Muscle creatine kinase S285A (HMCK S285A) (Homo sapiens; S285A)", "values": [{"measurement": "pKa", "setting": "Cys283 [2]", "result": 6.7}]}
{"substance": "Myoglobin A125C (Mb A125C) (Physeter macrocephalus (sperm whale); A125C)", "values": [{"measurement": "pKa", "setting": "Cys125", "result": 8.4}]}
{"substance": "Myoglobin G124C (Mb G124C) (Physeter macrocephalus (sperm whale); G124C)", "values": [{"measurement": "pKa", "setting": "Cys124", "result": 6.5}]}
{"substance": "O6-alkylguanine-DNA alkyltransferase (AGT) (Homo sapiens)", "values": [{"measurement": "pKa", "setting": "Cys145", "result": 5.3}]}
{"substance": "Papain (papaya proteinase I) (Carica papaya)", "values": [{"measurement": "pKa", "setting": "Cys25 [3]", "result": 3.3}]}
{"substance": "Papaya protease omega (caricain) (Carica papaya)", "values": [{"measurement": "pKa", "setting": "Cys25 [4]", "result": 2.9}]}
{"substance": "Ubiquitin-conjugating enzyme E2 B (Ubc2b; 'Ubc2' in Table 1) (Homo sapiens)", "values": [{"measurement": "pKa", "setting": "Cys88", "result": 10.2}]}
{"substance": "Ubiquitin-conjugating enzyme Ubc13 (Saccharomyces cerevisiae)", "values": [{"measurement": "pKa", "setting": "Cys87", "result": 11.1}]}
{"substance": "Ubiquitin-conjugating enzyme UbcH10 C114S (Homo sapiens; C114S)", "values": [{"measurement": "pKa", "setting": "Cys102", "result": 10.9}]}
